We go through one molecule from PMC11162469, “Discovery of RXFP2 genetic association in resistant hypertensive men and RXFP2 antagonists for the treatment of resistant hypertension” (Scientific Reports, 2024).

Data set [1] is described as follows: Pharmacokinetic study of RXFP2 mAbs in rat. Format: in vivo, Wistar Han rats. As to the method: For the pharmacokinetic study of RXFP2 mAbs in rat, 1G1, 2D4, 4B1, 4G6, 1F2, and 3F3 were prepared in phosphate buffered saline (0.100 mg/mL) with low endotoxin (≤ 0.76 EU/mL). Adult male Wistar Han rats (n = 3/mAb) were administered 1 mg/kg subcutaneously (10 mL/kg). Blood samples (100 µL) were collected in EDTA containing tubes at 0.25, 3, 6 24, 48, 96, 168 (day 7), 336 (day 14), 504 (day 21), and 672 (day 28) hours post dose, immediately centrifuged (6100 rpm), and 50 µL plasma stored at − 80 °C until assay. Rats maintained health throughout the study and were anesthetized (isoflurane to effect) and euthanized on day 28.
Frozen rat plasma samples were thawed and analyzed using a qualified analytical method based on sample dilution, followed by Electrochemiluminescence immunoassay analysis. The lower limit of quantification (LLQ) was 0.1 µg/mL using a 10 µL aliquot of 51-fold diluted rat plasma with a higher limit of quantification (HLQ) of 10 µg/mL. RXFP2 mAbs were captured with LDLa protein and detected with sulfo-tag labeled mouse anti-rat IgG2b. The computer systems that were used to acquire and quantify data included Gyrolab Workstation Version 8.1.5 and Watson LIMS version 7.6.1. Rat pharmacokinetic parameters were calculated by non-compartmental analysis (NCA) analysis using WinNonlin Phoenix 64 (version 8.3). Values are reported in mean ± standard deviation.

Another data set concerns the target human RXFP2 (Homo sapiens, UniProt Q8WXD0). The data set is described as follows: INSL3-stimulated cAMP assay in HEK293 stably expressing human RXFP2.
A further data set addresses rat RXFP2 (Rattus norvegicus, UniProt F7EMH8). The data set can be described thus: INSL3-stimulated cAMP assay in HEK293 stably expressing rat RXFP2.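 Further: cAMP measured with an HitHunter kit in 384-well plates, 11-point dose–response curves up to 1 µM antibody, four-parameter variable-slope fit.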 The note with it: INSL3 EC80-stimulated cAMP, stable expression, N = 2. On the technique in general: Cyclic AMP is a second messenger, typically raised through Gs and lowered through Gi signalling.
Setting [2] is: male Wistar Han rats, 1 mg/kg s.c., n = 3, mean ± SD.

Sequence of human RXFP2 (Q8WXD0 whole entry): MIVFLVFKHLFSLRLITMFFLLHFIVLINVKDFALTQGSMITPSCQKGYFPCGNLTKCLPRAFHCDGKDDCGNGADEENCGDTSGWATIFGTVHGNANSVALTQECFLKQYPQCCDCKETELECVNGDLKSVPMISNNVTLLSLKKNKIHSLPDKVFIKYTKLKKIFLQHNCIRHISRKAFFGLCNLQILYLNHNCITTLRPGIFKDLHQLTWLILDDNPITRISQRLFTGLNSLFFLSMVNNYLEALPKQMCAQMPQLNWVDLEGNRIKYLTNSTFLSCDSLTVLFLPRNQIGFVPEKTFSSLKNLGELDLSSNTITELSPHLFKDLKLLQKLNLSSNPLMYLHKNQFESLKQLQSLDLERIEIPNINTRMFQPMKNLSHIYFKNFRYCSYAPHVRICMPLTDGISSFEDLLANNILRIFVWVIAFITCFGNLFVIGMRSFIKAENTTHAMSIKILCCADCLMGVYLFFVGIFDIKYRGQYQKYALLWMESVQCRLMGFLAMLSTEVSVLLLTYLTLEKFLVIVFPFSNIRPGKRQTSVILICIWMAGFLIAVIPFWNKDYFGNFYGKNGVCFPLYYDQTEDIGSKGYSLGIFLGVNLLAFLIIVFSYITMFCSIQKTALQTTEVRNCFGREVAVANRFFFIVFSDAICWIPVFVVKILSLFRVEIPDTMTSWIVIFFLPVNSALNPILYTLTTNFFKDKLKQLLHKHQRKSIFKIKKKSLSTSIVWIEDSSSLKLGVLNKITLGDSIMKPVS
Sequence of rat RXFP2 (F7EMH8 20-737): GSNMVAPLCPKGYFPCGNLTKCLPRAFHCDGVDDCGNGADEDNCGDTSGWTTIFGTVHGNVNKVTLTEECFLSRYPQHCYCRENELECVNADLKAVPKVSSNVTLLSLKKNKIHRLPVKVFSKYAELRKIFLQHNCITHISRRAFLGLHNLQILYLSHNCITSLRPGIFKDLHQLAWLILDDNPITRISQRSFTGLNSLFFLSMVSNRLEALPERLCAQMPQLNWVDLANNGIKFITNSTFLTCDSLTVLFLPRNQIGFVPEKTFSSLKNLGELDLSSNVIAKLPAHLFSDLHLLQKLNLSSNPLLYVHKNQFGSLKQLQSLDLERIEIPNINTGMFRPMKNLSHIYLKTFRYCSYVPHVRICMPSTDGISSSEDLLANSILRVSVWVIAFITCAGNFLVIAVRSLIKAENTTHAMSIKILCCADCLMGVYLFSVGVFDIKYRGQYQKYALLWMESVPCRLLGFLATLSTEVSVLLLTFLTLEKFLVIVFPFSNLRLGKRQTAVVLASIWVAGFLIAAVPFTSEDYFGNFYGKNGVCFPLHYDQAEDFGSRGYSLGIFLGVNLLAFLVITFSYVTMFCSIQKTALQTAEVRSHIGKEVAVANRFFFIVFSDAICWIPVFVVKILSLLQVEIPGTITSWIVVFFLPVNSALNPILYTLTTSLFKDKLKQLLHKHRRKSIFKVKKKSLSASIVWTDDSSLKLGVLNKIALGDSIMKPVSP
Description for human RXFP2: RXFP activity assays were developed in HEK293 with stable expression of RXFP2 or RXFP1.
The same approach was used to generate stable HEK293 lines expressing human and rat RXFP1 and RXFP2 cDNA. The cAMP assay was conducted using the Eurofin Hithunter kit per manufacturer’s instructions in a 384-well format. All dose curve fitting and EC50 and IC50 determinations were performed in Prism (v9.3.0) using the non-linear fit, variable slope (four parameter) function.

B1: 4G6: Human/rat cross-reactive RXFP2 monoclonal antibody, rat IgG2b backbone; binds the LDLa domain (antibody, V domains shown)
VH: EVQLQQSGPELVKPGASVKLSCKASGYTFTSYVMHWVKQKPEQGLEWIGYKNPSNDGIKYNEKFKGKATLTSDKSSNIAYMELFSLTSEDSAVYYCARSDFGSVWAMDYWGQGTSVTVSS
VL: SIVMTQTPKFLLVSAGDRVTITCKASQSVNDDIVWYQQKPGQSPKLLIYYASNRYTGVPDRFTGSGYGTDFTFTISTVQAGDLAVYFCQQDYSSPFTFGSGTKLEIK
On to B1, for which the “half-life, extrapolated values” in data set [1] (Wistar Han rats, 1 mg/kg sc., over 28 days) is listed as no less than 11 days. Moreover, the “estimated dose to achieve tenfold higher IC50 HEK-rRXFP2 cAMP activity for approximately 28 days in rat” value in data set [1] (from trough concentration, dose-linearity assumed) is listed as “approximately 30 mg/kg”. In data set [1] (setting [2]), the AUClast amounted to 1350 ± 125 µg·h/mL, the Cmax is listed as 4150 ± 1200 ng/mL and the time to peak (Tmax) came to 9.33 ± 4.04 days. Further, the “blockade of hRXFP2” value in the data set with human RXFP2 (INSL3-stimulated cAMP, HEK293-hRXFP2) is given as “strong blockade”. Besides, the “HEK293-human RXFP2 cAMP % Max Response” value with human RXFP2 (INSL3 EC80-stimulated cAMP, stable expression, N = 2) amounted to 84.5%. Besides, the concentration for half-maximal inhibition (IC50) in the data set with human RXFP2 (read-out: HEK293-human RXFP2 cAMP IC50, INSL3 EC80-stimulated cAMP, stable expression, N = 2) is 15.6 nM. Further, in the data set with rat RXFP2, the “HEK293-rat RXFP2 cAMP % Max Response” value was determined as 82.5%. Moreover, in the data set with rat RXFP2 (read-out: HEK293-rat RXFP2 cAMP IC50), the half-inhibitory concentration (IC50) came out at 14.1 nM.

As a reminder, the Cmax is the maximum level reached in the sampled fluid or tissue. By Tmax is commonly meant the time from dosing to the highest level. Broadly, the IC50 is the concentration that inhibits the measured activity by half.
